Assay results taken from US10941182 (Amgen, dated 2021).
Starred links: 1 amine or outer side, 2 acyl side, 3 side chain; linkers in the order of their positions; H or OH if unused. Non-standard residues stand in square brackets, D forms with d. *: point of attachment. dBip = N[C@H](Cc1ccc(-c2ccccc2)cc1)C(=O)O; Oic = O=C(O)[C@@H]1C[C@@H]2CCCC[C@@H]2N1; Phe(4-Cl) = N[C@@H](Cc1ccc(Cl)cc1)C(=O)O; dPhe(4-Cl) = N[C@H](Cc1ccc(Cl)cc1)C(=O)O; Phe(4-I) = N[C@@H](Cc1ccc(I)cc1)C(=O)O; γGlu = O=C(O)[C@H](CCC(=O)[*:2])N[*:1]; NMeR = CN[C@@H](CCCNC(=N)N)C(=O)O; Tridecanoyl = CCCCCCCCCCCCC(=O)*; hArg = N=C(N)NCCCC[C@H](N)C(=O)O; Cha = N[C@@H](CC1CCCCC1)C(=O)O; NMeL = CN[C@@H](CC(C)C)C(=O)O; Tle = CC(C)(C)[C@H](N)C(=O)O; β3hP = O=C(O)C[C@@H]1CCCN1; Nle = CCCC[C@H](N)C(=O)O; Orn = NCCC[C@H](N)C(=O)O; Deg = CCC(N)(CC)C(=O)O; AEEA = NCCOCCOCC(=O)O; Aib = CC(C)(N)C(=O)O; BLeu = β-leucine

T1: human APJ receptor (human, UniProt P35414 1-380)
T1 sequence (looked up): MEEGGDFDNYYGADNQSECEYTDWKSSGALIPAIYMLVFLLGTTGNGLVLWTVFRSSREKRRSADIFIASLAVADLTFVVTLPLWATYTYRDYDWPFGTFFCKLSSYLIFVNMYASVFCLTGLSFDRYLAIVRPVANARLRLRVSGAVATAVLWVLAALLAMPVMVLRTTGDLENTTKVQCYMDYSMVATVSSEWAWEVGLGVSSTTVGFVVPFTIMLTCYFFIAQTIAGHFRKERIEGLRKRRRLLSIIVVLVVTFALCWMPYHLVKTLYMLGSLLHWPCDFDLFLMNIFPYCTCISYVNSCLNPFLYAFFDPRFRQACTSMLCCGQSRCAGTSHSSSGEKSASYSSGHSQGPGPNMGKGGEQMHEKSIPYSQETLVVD

T2: rat APJ receptor (rat, UniProt Q9JHG3 1-377)
T2 sequence (looked up): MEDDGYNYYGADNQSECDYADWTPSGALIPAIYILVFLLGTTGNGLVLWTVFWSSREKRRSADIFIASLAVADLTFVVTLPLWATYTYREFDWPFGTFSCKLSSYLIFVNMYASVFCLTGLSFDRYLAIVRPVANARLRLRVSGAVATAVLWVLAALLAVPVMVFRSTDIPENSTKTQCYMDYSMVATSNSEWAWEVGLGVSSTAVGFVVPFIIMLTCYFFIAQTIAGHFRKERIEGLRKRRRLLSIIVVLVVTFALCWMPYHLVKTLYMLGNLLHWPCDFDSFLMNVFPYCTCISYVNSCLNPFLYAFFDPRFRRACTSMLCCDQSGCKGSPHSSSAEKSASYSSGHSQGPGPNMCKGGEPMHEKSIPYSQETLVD

B1: Apelin polypeptide SEQ ID NO: 486 (peptide)
peptide: Tridecanoyl-[γGlu][AEEA][AEEA][dQ][hArg][Oic][dR][Cha]SHKG[Oic][Nle]P[Phe(4-Cl)]-OH
SMILES: CCCCCCCCCCCCC(=O)N[C@@H](CCC(=O)NCCOCCOCC(=O)NCCOCCOCC(=O)N[C@H](CCC(N)=O)C(=O)N[C@@H](CCCCNC(=N)N)C(=O)N1[C@H](C(=O)N[C@H](CCCNC(=N)N)C(=O)N[C@@H](CC2CCCCC2)C(=O)N[C@@H](CO)C(=O)N[C@@H](Cc2c[nH]cn2)C(=O)N[C@@H](CCCCN)C(=O)NCC(=O)N2[C@H](C(=O)N[C@@H](CCCC)C(=O)N3CCC[C@H]3C(=O)N[C@@H](Cc3ccc(Cl)cc3)C(=O)O)C[C@@H]3CCCC[C@@H]32)C[C@@H]2CCCC[C@@H]21)C(=O)O
B2: Apelin polypeptide SEQ ID NO: 442 (peptide)
peptide: Tridecanoyl-[γGlu][AEEA][AEEA][Tle]RP[NMeR][Cha]SHKG[Oic][Nle]P[Phe(4-Cl)]-OH
SMILES: CCCCCCCCCCCCC(=O)N[C@@H](CCC(=O)NCCOCCOCC(=O)NCCOCCOCC(=O)N[C@H](C(=O)N[C@@H](CCCNC(=N)N)C(=O)N1CCC[C@H]1C(=O)N(C)[C@@H](CCCNC(=N)N)C(=O)N[C@@H](CC1CCCCC1)C(=O)N[C@@H](CO)C(=O)N[C@@H](Cc1c[nH]cn1)C(=O)N[C@@H](CCCCN)C(=O)NCC(=O)N1[C@H](C(=O)N[C@@H](CCCC)C(=O)N2CCC[C@H]2C(=O)N[C@@H](Cc2ccc(Cl)cc2)C(=O)O)C[C@@H]2CCCC[C@@H]21)C(C)(C)C)C(=O)O
B3: Apelin polypeptide SEQ ID NO: 557 (peptide)
peptide: Tridecanoyl-[γGlu][AEEA][AEEA][Tle][hArg]P[dR][Cha]SHKG[Oic][Nle]P[Phe(4-Cl)]-OH
SMILES: CCCCCCCCCCCCC(=O)N[C@@H](CCC(=O)NCCOCCOCC(=O)NCCOCCOCC(=O)N[C@H](C(=O)N[C@@H](CCCCNC(=N)N)C(=O)N1CCC[C@H]1C(=O)N[C@H](CCCNC(=N)N)C(=O)N[C@@H](CC1CCCCC1)C(=O)N[C@@H](CO)C(=O)N[C@@H](Cc1c[nH]cn1)C(=O)N[C@@H](CCCCN)C(=O)NCC(=O)N1[C@H](C(=O)N[C@@H](CCCC)C(=O)N2CCC[C@H]2C(=O)N[C@@H](Cc2ccc(Cl)cc2)C(=O)O)C[C@@H]2CCCC[C@@H]21)C(C)(C)C)C(=O)O
B4: Apelin polypeptide SEQ ID NO: 301 (peptide)
peptide: Tridecanoyl-[γGlu][AEEA][AEEA][dQ][hArg][β3hP][NMeR][Cha]SHKG[Oic][Nle]P[dPhe(4-Cl)]-OH
SMILES: CCCCCCCCCCCCC(=O)N[C@@H](CCC(=O)NCCOCCOCC(=O)NCCOCCOCC(=O)N[C@H](CCC(N)=O)C(=O)N[C@@H](CCCCNC(=N)N)C(=O)N1CCC[C@H]1CC(=O)N(C)[C@@H](CCCNC(=N)N)C(=O)N[C@@H](CC1CCCCC1)C(=O)N[C@@H](CO)C(=O)N[C@@H](Cc1c[nH]cn1)C(=O)N[C@@H](CCCCN)C(=O)NCC(=O)N1[C@H](C(=O)N[C@@H](CCCC)C(=O)N2CCC[C@H]2C(=O)N[C@H](Cc2ccc(Cl)cc2)C(=O)O)C[C@@H]2CCCC[C@@H]21)C(=O)O
B5: Apelin polypeptide SEQ ID NO: 326 (peptide)
peptide: Tridecanoyl-[γGlu][AEEA][AEEA][Nle][dR]Q[hArg]P[dR][NMeL]SAKG[Oic][Phe(4-I)]P[dBip]-OH
SMILES: CCCCCCCCCCCCC(=O)N[C@@H](CCC(=O)NCCOCCOCC(=O)NCCOCCOCC(=O)N[C@@H](CCCC)C(=O)N[C@H](CCCNC(=N)N)C(=O)N[C@@H](CCC(N)=O)C(=O)N[C@@H](CCCCNC(=N)N)C(=O)N1CCC[C@H]1C(=O)N[C@H](CCCNC(=N)N)C(=O)N(C)[C@@H](CC(C)C)C(=O)N[C@@H](CO)C(=O)N[C@@H](C)C(=O)N[C@@H](CCCCN)C(=O)NCC(=O)N1[C@H](C(=O)N[C@@H](Cc2ccc(I)cc2)C(=O)N2CCC[C@H]2C(=O)N[C@H](Cc2ccc(-c3ccccc3)cc2)C(=O)O)C[C@@H]2CCCC[C@@H]21)C(=O)O
B6: Apelin polypeptide SEQ ID NO: 455 (peptide)
peptide: Tridecanoyl-[γGlu][AEEA][AEEA][dQ][hArg][Deg][dR][Cha]SHKG[Oic][Nle]P[Phe(4-Cl)]-OH
SMILES: CCCCCCCCCCCCC(=O)N[C@@H](CCC(=O)NCCOCCOCC(=O)NCCOCCOCC(=O)N[C@H](CCC(N)=O)C(=O)N[C@@H](CCCCNC(=N)N)C(=O)NC(CC)(CC)C(=O)N[C@H](CCCNC(=N)N)C(=O)N[C@@H](CC1CCCCC1)C(=O)N[C@@H](CO)C(=O)N[C@@H](Cc1c[nH]cn1)C(=O)N[C@@H](CCCCN)C(=O)NCC(=O)N1[C@H](C(=O)N[C@@H](CCCC)C(=O)N2CCC[C@H]2C(=O)N[C@@H](Cc2ccc(Cl)cc2)C(=O)O)C[C@@H]2CCCC[C@@H]21)C(=O)O
B7: Apelin polypeptide SEQ ID NO: 314 (peptide)
peptide: Tridecanoyl-[γGlu][AEEA][AEEA][Nle][dR]Q[hArg]P[dR][NMeL]SHKG[Oic][Phe(4-I)]P[dBip]-OH
SMILES: CCCCCCCCCCCCC(=O)N[C@@H](CCC(=O)NCCOCCOCC(=O)NCCOCCOCC(=O)N[C@@H](CCCC)C(=O)N[C@H](CCCNC(=N)N)C(=O)N[C@@H](CCC(N)=O)C(=O)N[C@@H](CCCCNC(=N)N)C(=O)N1CCC[C@H]1C(=O)N[C@H](CCCNC(=N)N)C(=O)N(C)[C@@H](CC(C)C)C(=O)N[C@@H](CO)C(=O)N[C@@H](Cc1c[nH]cn1)C(=O)N[C@@H](CCCCN)C(=O)NCC(=O)N1[C@H](C(=O)N[C@@H](Cc2ccc(I)cc2)C(=O)N2CCC[C@H]2C(=O)N[C@H](Cc2ccc(-c3ccccc3)cc2)C(=O)O)C[C@@H]2CCCC[C@@H]21)C(=O)O
B8: Apelin polypeptide SEQ ID NO: 550 (peptide)
peptide: Tridecanoyl-[γGlu][AEEA][AEEA]Q[β3hP][NMeR][Cha]SHKG[Oic][Nle][Aib][Phe(4-Cl)]-OH
SMILES: CCCCCCCCCCCCC(=O)N[C@@H](CCC(=O)NCCOCCOCC(=O)NCCOCCOCC(=O)N[C@@H](CCC(N)=O)C(=O)N1CCC[C@H]1CC(=O)N(C)[C@@H](CCCNC(=N)N)C(=O)N[C@@H](CC1CCCCC1)C(=O)N[C@@H](CO)C(=O)N[C@@H](Cc1c[nH]cn1)C(=O)N[C@@H](CCCCN)C(=O)NCC(=O)N1[C@H](C(=O)N[C@@H](CCCC)C(=O)NC(C)(C)C(=O)N[C@@H](Cc2ccc(Cl)cc2)C(=O)O)C[C@@H]2CCCC[C@@H]21)C(=O)O
B9: Apelin polypeptide SEQ ID NO: 292 (peptide)
peptide: Tridecanoyl-[γGlu][AEEA][AEEA][dL][hArg]P[NMeR][Cha]SHKG[Oic][Nle]P[dPhe(4-Cl)]-OH
SMILES: CCCCCCCCCCCCC(=O)N[C@@H](CCC(=O)NCCOCCOCC(=O)NCCOCCOCC(=O)N[C@H](CC(C)C)C(=O)N[C@@H](CCCCNC(=N)N)C(=O)N1CCC[C@H]1C(=O)N(C)[C@@H](CCCNC(=N)N)C(=O)N[C@@H](CC1CCCCC1)C(=O)N[C@@H](CO)C(=O)N[C@@H](Cc1c[nH]cn1)C(=O)N[C@@H](CCCCN)C(=O)NCC(=O)N1[C@H](C(=O)N[C@@H](CCCC)C(=O)N2CCC[C@H]2C(=O)N[C@H](Cc2ccc(Cl)cc2)C(=O)O)C[C@@H]2CCCC[C@@H]21)C(=O)O
B10: Apelin polypeptide SEQ ID NO: 297 (peptide)
peptide: Tridecanoyl-[γGlu][AEEA][AEEA][Orn]F[hArg][hArg]Q[NMeR]P[NMeR][Cha]SHKG[Oic][Nle]P[Phe(4-Cl)]-OH
SMILES: CCCCCCCCCCCCC(=O)N[C@@H](CCC(=O)NCCOCCOCC(=O)NCCOCCOCC(=O)N[C@@H](CCCN)C(=O)N[C@@H](Cc1ccccc1)C(=O)N[C@@H](CCCCNC(=N)N)C(=O)N[C@@H](CCCCNC(=N)N)C(=O)N[C@@H](CCC(N)=O)C(=O)N(C)[C@@H](CCCNC(=N)N)C(=O)N1CCC[C@H]1C(=O)N(C)[C@@H](CCCNC(=N)N)C(=O)N[C@@H](CC1CCCCC1)C(=O)N[C@@H](CO)C(=O)N[C@@H](Cc1c[nH]cn1)C(=O)N[C@@H](CCCCN)C(=O)NCC(=O)N1[C@H](C(=O)N[C@@H](CCCC)C(=O)N2CCC[C@H]2C(=O)N[C@@H](Cc2ccc(Cl)cc2)C(=O)O)C[C@@H]2CCCC[C@@H]21)C(=O)O

What was measured:
[1] = biological target: T1, human APJ receptor; assay: cell-based or functional assay
[2] = biological target: T2, rat APJ receptor; assay: cell-based or functional assay

Row | EC50 Human APJ Receptor (GTPγS assay) [1] | EC50 Rat APJ Receptor (GTPγS assay) [2] | Binder
1 | 1.79 nM | 4.04 nM | B1
2 | 0.305 nM | 0.31 nM | Tridecanoyl-[γGlu][AEEA][AEEA][Orn]F[hArg][hArg][BLeu][hArg]P[hArg][Cha]SHKG[Oic][Nle]P[Phe(4-Cl)]-OH [Apelin polypeptide SEQ ID NO: 307]
3 | 2 nM | 2.16 nM | B2
4 | 6.12 nM | 10.4 nM | B3
5 | 36 nM | 29 nM | B4
6 | 14.8 nM | 17.8 nM | B5
7 | 2.48 nM | 10.3 nM | B6
8 | 2.77 nM | 6.81 nM | B7
9 | 94.8 nM | 135 nM | B8
10 | 5.78 nM | 6.68 nM | B9
11 | 0.698 nM | 1.02 nM | B10
